Measurements reported in article PMC9164268.

Legend:
[1] = molecular target: T1, surfactant protein D (human), P35247; assay: SEC; Sephadex G-200 column (1.5 x 12 cm, 20 mL), 0.05 M HNaPO4, 0.15 M NaCl, pH 7; 1.5 mg/mL protein loaded, 12 x 1 mL fractions, isocratic; protein in fractions by Bradford assay and slot blot with anti-SPD and anti-MAA; conditions: remark: other sources report otherwise
T1 chain: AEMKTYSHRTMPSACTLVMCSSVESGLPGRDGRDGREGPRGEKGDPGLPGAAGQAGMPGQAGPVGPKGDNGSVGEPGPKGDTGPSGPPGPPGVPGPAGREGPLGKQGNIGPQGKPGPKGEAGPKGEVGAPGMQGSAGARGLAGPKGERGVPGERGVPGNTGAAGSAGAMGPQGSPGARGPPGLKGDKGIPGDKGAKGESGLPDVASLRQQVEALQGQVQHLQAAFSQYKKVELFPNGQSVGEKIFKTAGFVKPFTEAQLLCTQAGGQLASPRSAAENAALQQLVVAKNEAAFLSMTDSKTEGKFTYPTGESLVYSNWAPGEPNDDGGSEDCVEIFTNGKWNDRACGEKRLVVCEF

[2] = molecular target: T2, MAA-adducted surfactant protein D (human), P35247; assay: as above; conditions: remark: other sources report otherwise
T2 chain: T1 chain

B1: surfactant protein D, P35247 21-375 (natural protein)
chain: T1 chain
- stoichiometry N [1]: 3

B2: MAA-adducted surfactant protein D, P35247 21-375 (natural protein)
chain: T1 chain
modifications: here or on the partner: malondialdehyde-acetaldehyde (MAA) adducts; MAA adduction occurs primarily on lysine residues; positions not given; malondialdehyde-acetaldehyde (MAA) adducts; MAA adduction occurs primarily on lysine residues; positions not given
- stoichiometry N [2]: 3
